± gives the standard deviation.
Test: protein stability index of a GFP-peptide fusion (GPS, HEK-293T) (PSI 1-6); higher = more stable
Details: c terminus: a fixed tail appended
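Also: 24-mer peptide tiles fused after GFP, lentivirally expressed, FACS-sorted into six equal bins by GFP/DsRed ratio, decoded by Illumina sequencing, PSI is the read-weighted mean bin number.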

Row | Sequence | protein stability index (treatment: DMSO) | protein stability index (treatment: MLN4924 1 uM, 8 h)
1 | AYVAEREDELSLVKGSRVTVMEKC [NCK2] | 4.31 ± 0.31 | 4.48 ± 0.19
2 | CAAVLPGKPGDRNCPEFPPPDRTL [RSPH3] | 4.16 ± 0.42 | 3.76 ± 0.16
3 | CAGPGFTHNIAHGSLGFEPVYVSC [SPAG8] | 2.48 ± 0.75 | 2.49 ± 0.64
4 | CAMEDHNCEQLCVNVPGSFVCQCY [MATN2] | 2.5 ± 0.35 | 2.48 ± 0.39
5 | CATVGNRGFVFGGRYRDARMNDLH [KLHDC2] | 2.19 ± 0.36 | 2.05 ± 0.19
6 | CCEFLKRQLDPSNCLGIRAFADTH [KLHL20] | 2.62 ± 0.69 | 2.42 ± 0.48
7 | CDDGGDGRGAVVPGAGLRRPTYTP [ZBTB22] | 4.35 ± 0.23 | 4.25 ± 0.26
8 | CDECGKHFSQGSALILHQRIHSGE [ZNF24] | 5.16 ± 0.2 | 5.43 ± 0.2
9 | CDPGLTAFEPEALGNLVEGMDFHR [CAMK2D] | 4.33 ± 0.43 | 4.21 ± 0.24
10 | CDSTNAAIAKQALKKPIKGKQAPR [KMT5A] | 4.79 ± 0.22 | 4.74 ± 0.29
11 | CEHICVNSDDSYTCECLEGFRLAE [MATN2] | 4.11 ± 0.69 | 4.71 ± 0.62
12 | CEKFLQEVDFFQRYFIADLPHLQD [INTS4] | 2.49 ± 0.54 | 1.95 ± 0.48
13 | CFPRLDINVSKGINHLLKSPFSVH [PRIM1] | 2.14 ± 0.68 | 2.05 ± 0.36
14 | CFVEFHEHRHAAAALAAMNGRKIM [TIA1] | 2.71 ± 0.14 | 2.81 ± 0.17
15 | CGRKLAKDGEYCWRWTGFNFGFDL [GMCL1] | 2.72 ± 0.54 | 2.71 ± 0.91
16 | CINRFQQVESRWGYSGTSDRIRFT [BTBD1] | 1.8 ± 0.12 | 2.07 ± 0.31
17 | CMSFNPETRRLSIGLDNGTISEFI [WDFY2] | 2.42 ± 0.56 | 2.89 ± 0.38
18 | CPPLHIPGSMSEVQELCKQLHAKI [TNNI2] | 2.88 ± 0.3 | 2.93 ± 0.14
19 | CPVVRNGSVAVVEAECEKSSATTY [SLC6A17] | 4.64 ± 0.44 | 4.82 ± 0.17
20 | CRPLQFQPSKSHKKVLKKMLKFLA [ATE1] | – | 3.43 ± 0.17
21 | DALNRRKAQLLARVNKEHEHKLKV [TRIM9] | 3.47 ± 0.11 | 3.29 ± 0.092
22 | DALSSPTSVQEADETTRSDISERP [C2CD2L] | 5.64 ± 0.35 | 5.61 ± 0.24
23 | DANLLNDRVLRAMLKAEETCAPSV [CCND1] | 3.33 ± 0.34 | 3.61 ± 0.23

Row | Sequence | protein stability index (treatment: DMSO) | protein stability index (treatment: MLN4924 1 uM, 8 h)
24 | DATWAAVAACTKEIDTQGRHLAHS [C10orf62] | 4.04 ± 0.24 | 4.09 ± 0.39
25 | DAWSGSNAYHIERLMSFRPICSAN [CRYBA1] | 2.46 ± 0.26 | 2.55 ± 0.26
26 | DCEVFRQRFRQFQYREAAGPHEAF [ZNF449] | 2.94 ± 0.29 | 2.93 ± 0.28
27 | DCMAALGLAYDRKKVSKAAILARI [SCD] | 1.94 ± 0.3 | 2.29 ± 0.2
28 | DDKLFQKLAKVYSYAHGWMFQGWN [CPN1] | 2.45 ± 0.51 | 2.25 ± 0.45
29 | DDLVPKGKKFLLLSINRYERKKNL [ALG2] | 2.58 ± 0.092 | 2.67 ± 0.29
30 | DDSCQDQPGTNCALAIKVNLCGHW [ADAMTSL2] | 2.57 ± 0.1 | 2.65 ± 0.46
31 | DEDDSTSRFSSSTEQSSASRLMRR [DVL3] | 5.28 ± 0.25 | 5.36 ± 0.26
32 | DEKAKPRDRQQAPGLGQESKAPGS [TLE6] | 5.49 ± 0.21 | 5.49 ± 0.21
33 | DEPQETAYRTQVSSCCLHICQGIR [PKD2L1] | 2.8 ± 0.61 | 3.1 ± 0.46
34 | DFWLNMAALTEALQRQAEQNPTAS [FCHO1] | 2.51 ± 0.21 | 2.47 ± 0.35
35 | DGGEPQSVQVDGQARTQKLQGLIP [TNXB] | – | 5.22 ± 0.99
36 | DHPGTPPHKTFRKLRLFDTPHTPK [WEE1] | 3.88 ± 0.11 | 3.98 ± 0.15
37 | DISIHHFTCDEENVFAAVGRGLYV [WDR41] | 2.7 ± 0.35 | 2.61 ± 0.43
38 | DISLGQKEDGEPSWREAKVSWFGS [PWWP2B] | 3.15 ± 0.14 | 3.39 ± 0.14
39 | DKCSAPKIWRTPNGKTIEMDTQFT [IQUB] | 3.53 ± 0.28 | 3.6 ± 0.21
40 | DKENIYILLEYCSRRSMAHILKAR [PLK2] | 2.2 ± 0.29 | 2.55 ± 0.43
41 | DKFVATMYHYLQFAYYKLNDVRQA [P3H4] | 2.75 ± 0.39 | 2.77 ± 0.47
42 | DLEEERREEEEKTPPETKPDPPVN [PCMTD2] | 5.64 ± 0.37 | 5.48 ± 0.48
43 | DLMVEATPRRVFANAHTYHINSIS [PPP2R2B] | 2.58 ± 0.23 | 2.49 ± 0.3
44 | DMRRDEEGSLCAAHLPKAQLSGYA [FBF1] | 4.12 ± 0.25 | 4.15 ± 0.25
45 | DPESERALQAPHSPSKTDGKELAG [PBXIP1] | 5.48 ± 0.28 | 5.75 ± 0.25
46 | DQDGDQAPEYRGRTELLKDAIGEG [MOG] | 5.33 ± 0.34 | 5.43 ± 0.21

Row | Sequence | protein stability index (treatment: DMSO) | protein stability index (treatment: MLN4924 1 uM, 8 h)
47 | DREQVSSYNITVTATDGGSPPLST [PCDHGA10] | 4.54 ± 0.24 | 4.74 ± 0.14
48 | DRGTRVVFIDFSVYNANINLFCVL [PKD2L1] | 3.11 ± 0.08 | 2.95 ± 0.31
49 | DRSRTVSASSTGDLPKAKTRAADL [SRPK2] | 4.94 ± 0.11 | 4.68 ± 0.24
50 | DSDSEKQQQIHHIKNLYAFNLFCQ [VPS39] | 2.58 ± 0.29 | 2.71 ± 0.35
51 | DSHILLCLMGLAETPGCATLLPAS [DCAF4] | 2.67 ± 0.45 | 2.58 ± 0.55
52 | DTEVITVEKSSPATSLFVELDEEE [BCL2L13] | 5.39 ± 0.065 | 5.54 ± 0.25
53 | DTFAAYTREQLYQAIFHAVDQYLA [MCOLN1] | 2.66 ± 0.44 | 2.42 ± 0.44
54 | DTGLFSRSKSGSEEVLCDSCIGNK [TRIM29] | 4.61 ± 0.1 | 4.92 ± 0.23
55 | DTWTLTEEHGLQQERPRPEPGRLG [PXN] | 4.93 ± 0.34 | 4.92 ± 0.19
56 | DVKRLGKQNARFLTSMRRLSSIKR [STX11] | 2.9 ± 0.35 | 2.98 ± 0.42
57 | DYVMTTLLFSDKNVNSNLITWNRV [TRIP13] | 2.4 ± 0.75 | 2.36 ± 0.62
58 | EADPEMIKRAEDYGPVEVISHWHP [CLPTM1] | 4.42 ± 0.24 | 4.26 ± 0.38
59 | EAEKDGVKVPTTLAEYCIKTKVPS [UBE2R2] | 5.08 ± 0.19 | 5.15 ± 0.2
60 | EAMAEKNRRDVEAWFFSKTEELNK [KRT15] | 4.15 ± 0.23 | 4.21 ± 0.25
61 | ECVWNGSDSVIMTGSYNNFFRMFD [PPP2R2B] | 2.23 ± 0.34 | 2.27 ± 0.39
62 | EDDGLQSAFTAAHELGHVFNMLHD [ADAMTS4] | 3.77 ± 0.28 | 3.9 ± 0.4
63 | EDDVSFLMKHKSRKRRLFCTMEPE [TRIM35] | 3.61 ± 0.28 | 3.74 ± 0.19
64 | EDFIFSHFFGDKALKKRSGKKDKH [PBXIP1] | 3.82 ± 0.079 | 4.13 ± 0.16
65 | EDVDTSQVLYEWEQGFSQSFTQEQ [CTNNB1] | 5.03 ± 0.23 | 5.07 ± 0.21
66 | EEAISVVMSGKMSVSKAQSIYGIP [LCOR] | 2.69 ± 0.17 | 2.53 ± 0.087
67 | EEDNVEESEEEGPWEPPVLPILTW [HDAC6] | 4.33 ± 0.29 | 4.62 ± 0.3
68 | EEERRRREEEERERLQKEEEKRRR [ACBD3] | 5.59 ± 0.45 | 5.69 ± 0.12
69 | EEGLEARGEALGLVGAQAPATEEQ [MAGEA3] | 5.57 ± 0.27 | 5.39 ± 0.34

Row | Sequence | protein stability index (treatment: DMSO) | protein stability index (treatment: MLN4924 1 uM, 8 h)
70 | EEKKAKVAPPAKQAQQKKAPAKKA [BRD3] | 5.45 ± 0.29 | 5.49 ± 0.17
71 | EEKQRELARKGSLKNGSMGSPVNQ [FAM219A] | 5.33 ± 0.097 | 5.35 ± 0.16
72 | EELSVLEVFEGREDSIFGDPKKLL [MAGEA6] | 4.22 ± 0.35 | 4.32 ± 0.28
73 | EELTREAVAVDVAVPKRLLEIVGR [HAGHL] | 3.85 ± 0.17 | 3.91 ± 0.38
74 | EEWLDILGNGLLRKKTLVPGPPGS [FKBP8] | 2.62 ± 0.12 | 2.78 ± 0.5
75 | EEYCHKHYDRNKDGNKDVYLSLLR [VPS39] | 3.23 ± 0.35 | 3.19 ± 0.27
76 | EFCRNTLCAPEVISLINTRMLFWA [FAF2] | 2.74 ± 0.45 | 2.73 ± 0.32
77 | EFHPHHCNTFVYSSSKGTIRLCDM [PPP2R2B] | 2.31 ± 0.29 | 2.15 ± 0.18
78 | EFNELLSKYQLSEAQLSLIRDIRR [NFE2L1] | 2.57 ± 0.22 | 2.82 ± 0.38
79 | EGCGPPLRRWLRANLAASGGYAIA [TSPAN10] | 1.94 ± 0.21 | 2.52 ± 0.3
80 | EHFGIVPLEAMYMQCPVIAVNSGG [ALG2] | 2.33 ± 0.11 | 2.59 ± 0.37
81 | EICSEPVAASPAPAGERRIYRHRI [ZNF511] | 4.27 ± 0.47 | 4.09 ± 0.26
82 | EKCKEEFVEEIKKLATQHKQLISQ [ZMYND11] | 4.2 ± 0.28 | 4.06 ± 1.2
83 | EKGLPLRKTHVLLGRSHDTVQEAA [MFSD9] | 4.22 ± 0.23 | 4.15 ± 0.34
84 | EKLGSGEPSHSVKVHTVPKPGKGA [ATE1] | 5.04 ± 0.23 | 5 ± 0.22
85 | EKLSRGLRYYYDKNIIHKTSGKRY [ETS2] | 2.74 ± 0.34 | 2.92 ± 0.2
86 | EKSVTKDAEGLAARDVQKIIGDYF [INTS4] | 2.85 ± 0.4 | 3.51 ± 0.12
87 | ELANGKPQTRSGPECGLAKKPPEE [ADAMTSL2] | – | 4.78 ± 0.42
88 | ELDELLKEISRKRRSIRYGREVEL [PTPRD] | 2.5 ± 0.68 | 2.96 ± 0.61
89 | ELEKAHLALIDYLTQKRSQLVKKL [VPS39] | 2.28 ± 0.39 | 2.58 ± 0.23
90 | ELGSEVDITEGDRKPDYTAYVAMI [ATF4] | 3.46 ± 0.15 | 3.61 ± 0.3
